The source of these data is the DeepSol protein solubility set.

The nature of this data set: soluble on expression in E. coli; label from the status in PepcDB or PDB records.
As to “MTPAIDAHVRLDTHPTHPSAVQAHLTGTQARVASMALEAAGWSAAATGVLVLARIDHEEPYWAADAAQHLTAAGITVEITPRLQEAIDEEWTWPNYPMTWCTRSEIREVSNQAQKIHDDIRNGHLLIHAHAHDGHTTVAVGTYLHPGGKSVYLHGEDHLRQVADTFDSPAEALVAFEKVHAAEMRPGPAPLTDTERAAIAARSVFDATTAKPEPPRREPEAVPVYLADAGDHDALLDSFLDTHGEFEKWRTWSDETTHAIHESQTLRIERVHETQARETAWTVAAYETPVSDRMWHLTATDATPAPVLLNLLNHLADGDGWDTVIGVPVGEKTVTTATQPLTEAGWKHTLTGHGIRWTSPDGQASVRFDPLTAQAPQNPATWTIWAGPGPDRPTWAITASSHTPSSLLADLSESLAHETGTRQPRPGREHRTRLAASAPAIPAVTSDRPASRSRLEHHHHHH”, the “soluble on expression in E. coli” value is listed as “soluble”.

As for “MSLSTIDLHVHSNYSDGIHPPADLVKMAAERGLVAIAIADHDTVDGIDEALIAGARLGVEVVPAVELSAEHGRYRDMHILGYHLDHRDPRLVDMLAEFRINREIRGRAIVDKINQRLADGRKPLLSYDEVLNLAEGAVGRPHIGRMLIERGYARNMEDAFRRYLIPCNVPKRYIPAGDAITEIRRAGGVAVLAHPITVSDDRQVLRGIVSELVALGLDGIEVFNNMCYKDDMLFLEFLCRESGLLMTGGSDFHGFEDDVEIGSGRGGLAVSHRLAEAVKNLAESRRITPPGSRTEGHHHHHH”, the “soluble on expression in E. coli” value is reported as “soluble”. The entry for “MAHHHHHHMLGACYPIPSGISLSLSRSRAYDVVYHYTRAAHIRLRLHGSGHSGEHMAAAEQRTCRPHLLWRLDGRPHADSIGHGLADDTRLCARVDLRRMLVACPRWGQSRAFIPQSRRLRALPRDGLRACLRGAVLPSGLATVTMVADDTT” is “not soluble”; for “MGSDKIHHHHHHNVYSLPANGGRLIGELQTHVVEKGDYFKTIADKYNIGILELMETNPGVDPFLPTPGTQLVIPTQMLLPDVPRKGIVINLPELRLYYFPKNGREVHVFPVGIGRIGRETPEMTTKIKARIPNPSWTPPASLRAEHLRERGEVLPPVVPAGPDNPLGKYAMQLSYGDGSYLIHGTNKDFGIGMRVSAGCIRLNPDDIEWLFHQAKYGDSVRVINQTVKIATEPDGRQIIEVHSPLSKTEDQPREKVISLSSKVVKFISQESVDNTKANDALLTQNGIPMVISHPPLTAAQDLEITP” it is “not soluble”; for “MNLRKPSAWTALALSISTGPAAAGTVTSATLAASTLSPDCLEYKVVGICYWLLCTPFGCKVKTSTKVRHYVPDAVVSSYSNTGENPWVEVSSLSSPTSFAQDGGDGTTSHNNEDNLAKFKNTDVIGHPGGATFSKFASASGYACQGAATPYMPYLLSTLDTIAWRYGVPESAYPEALIPGQREVGGLTSGDMWGSLYPRSGFIHQADDYKAAAVIAQRAGDVVTRRGQIHIYQPLLAKPQSGYWPAGELIETDASTGKWQELTPTLSQSCAVFPNSQPRVQATDGGYAWALWRPYSCCKRQGQTFLGSTDFQLEHHHHHH” it is “not soluble”. With “MGGSHHHHHHGMASALAMAPSPSLVQVYTSPAAVAVWEWQDGLGTWHPYSATVCSFIEQQFVQQKGQRFGLGSLAHSIPLGQADPSLAPYIIDLPSWTQFRQDTGTMRAVRRHLFPQHSAPGRGVVWEWLSDDGSWTAYEASVCDYLEQQVARGNQLVDLAPLGYNYTVNYTTHTQTNKTSSFCRSVRRQAGPPYPVTTIIAPPGHTGVACSCHQCLSGSRTGPVSGRYRHSMTNLPAYPVPQHPPHRTASVFGTHQAFAPYNKPSLSGARSAPRLNTTNAWGAAPPSLGSQPLYRSSLSHLGPQHLPPGSSTSGAVSASLPSGPSSSPGSVPATVPMQMPKPSRVQQALAGMTSVLMSAIGLPVCLSRAPQPTSPPASRLASKSHGSVKRLRKMSVKEATPKPEPEPEQVIKNYTEELKVPPDEDCIICMEKLSTASGYSDVTDSKAIGSLAVGHLTKCSHAFHLLCLLAMYCNGNKDGSLQCPSCKTIYGEKTGTQPQGKMEVLRFQMSLPGHEDCGTILIVYSIPHGIQGPEHPNPGKPFTARGFPRQCYLPDNAQGRKVLELLKVAWKRRLIFTVGTSSTTGETDTVVWNEIHHKTEMDRNITGHGYPDPNYLQNVLAELAAQGVTEDCLEQQ” the entry was “not soluble”; with “MNVSSSNEDTPNAPDMLSWCVHTQDNHPLPLPELKAKLLALGIDADTYALTTGLSMELEPTTLADAGYDRYQRPLLLTVDAARAWHAMRQAAVGDGIVLDAISGYRSYAYQFGILERKLAQGKTLQEILTVNAAPGFSEHHSGEALDIGMPGESPVEESFEGSSAFAWLHRHAGRFGFHLSYPRNNPHGIVYEPWHWRWRAR”, “not soluble”.

For “SASHIVGYPRMGPKRELKFALESFWDGKSSAEDLEKVATDLRASIWKQMADAGIKYIPSNTFSYYDQVLDTTAMLGAVPGRYSWTGGEIGFSTYFSMARGNATVPAMEMTKWFDTNYHFIVPELGPNTKFSYSSHKAVNEYKEAKALGVDTVPVLVGPVSYLLLSKPAKGVEKSFALLSLLSSILPVYKEVIAELKAAGATWIQFDEPTLVLDLDSHQLAAFSAAYTELESALSGLNVLIETYFADIPAESYKTLTSLNSVTAYGFDLIRGSKTLDLVKSAGFPSGKYLFAGVVDGRNIWADDLAASLTTLESLEAIVGKDKLVVSTSCSLMHTAVDLVNETKLDSEIKSWLAFAAQKVVEVNALAKALAGQKDEAYFAANTAAQASRRSSPRVTNEEVQKAAAALRGSDHRRATNVSARLDAQQKKLNLPVLPTTTIGSFPQTVELRRVRREYKAKKISEDEYVSAIKEEISKVVKIQEELDIDVLVHGEPERNDMVEYFGEQLSGFAFTANGWVQSYGSRCVKPPIIYGDVSRPNAMTVFWSKMAQSMTSRPMKGMLTGPVTILNWSFVRNDQPRFETCYQIALAIKKEVEDLEAGGIQVIQIDEAALREGLPLRKAEHAFYLDWAVHSFRITNCGVQDTTQIHTHMCYSNFNDIIHSIINMDADVITIENSRSDEKLLSVFREGVKYGAGIGPGVYDIHSPRIPSTEEIADRINKMLAVLDTNILWVNPDCGLKTRKYTEVKPALTNMVLAAKLIRTQLASAK”, the “soluble on expression in E. coli” value is “soluble”. With “GPGSMMTEATTTPVETPIVCNIRDAAGLEGKLVTFKGWAYHIRKARKTLIFVELRDGSGYCQCVIFGKELCEPEKVKLLTRECSLEITGRLNAYAGKNHPPEIADILNLEMQVTEWKVIGESPIDLENIINKDSSIPQKMQNRHIVIRSEHTQQVLQLRSEIQWYFRKYYHDNHFTEIQPPTIVKTQCEGGSTLFKLQYFNEPAYLTQSSQLYLESVIASLGKSFCMLSSYRAEQSRTVRHLAEYLHLEAELPFISFEDLLNHLEDLVCTVIDNVMAVHGDKIRKMNPHLKLPTRPFKRMTYADAIKYCNDHGILNKDKPFEYGEDISEKPERQMTDEIGCPIFMIHFPSKMKAFYMSKVPGHPDLTESVDLLMPGVGEIVGGSMRIWNYDELMGAYKANGLNPDPYYWYTQQRKYGSCPHGGYGLGVERLVMWLLGEDHIRKVCLYPRYLERCEP” the entry was “soluble”; with “SRNFSVFERFSKAFKDHPSLTRILVVSTISGGGLIAYSEANASYGANGGAVVETGTKKKKVVLLGTGWAGTSFLKNLNNSQYEVQIISPRNYFAFTPLLPSVTCGTVEARSVVEPIRNIGRKNVDTSYLEAECFKIDPASKKVYCRSKQGLSSNGKKEFSVDYDYLVIATGAQSNTFNIPGVEENCHFLKEVEDAQRIRKTVIDSFEKASLPELSDEERKRILHFVVVGGGPTGVEFAAELHDFVTEDLVSLYPRAKGSVRITLLEAADHILTMFDKRITEFAEEKFSRDGIDVKLGSMVTKVNEKDISAKTKGGEVSSIPYGMIVWSTGIGTRPVIKDFMKQIGQGNRRALATDEWLRVEGTDNIYALGDCATINQRKVMEDVSAIFSKADKDKSGTLTLKEFQEAMDDICVRYPQVELYLKSKRMRGIADLLKEAETDDVSKNNIELKIEEFKSALSQVDSQVKFLPATAQVAAQQGAYLAKCFDRMEECEKSPEGPIRMRGEGRHRFRPFRYRHLGQFAPLGGEQTAAQLPGDWVSIGHSSQWLWYSVYASKQVSWRTRVLVVSDWMRRFIFGRDSSSI”, “soluble”. The entry for “MTLMKKFYVTTPIYYVNDVPHLGHAYTTIAADTIARYYRLRDYDVFFLTGTDEHGLKIQKKAEELGISPKELVDRNAERFKKLWEFLKIEYTKFIRTTDPYHVKFVQKVFEECYKRGDIYLGEYEGWYCVGCEEFKSEAELAEDHTCPIHQKKCEYIKEPSYFFRLSKYQDKLLELYEKNPEFIQPDYRRNEIISFVKQGLKDLSVTRPRSRVKWGIPVPFDPEHTIYVWFDALFNYISALEDKVEIYWPADLHLVGKDILRFHTVYWPAFLMSLGYELPKKVFAHGWWTVEGKKMSKTLGNVVDPYEVVQEYGLDEVRYFLLREVPFGQDGDFSKKAILNRINGELANEIGNLYSRVVNMAHKFLGGEVSGARDEEYAKIAQESIKNYENYMEKVNFYKAIEEILKFTSYLNKYVDEKQPWALNKERKKEELQKVLYALVDGLFVLTHLLYPITPNKMKEALQMLGEKEFLKELKPYSKNTYKLGERKILFPKREG” is “soluble”; for “MPELPEVETIRRTLLPLIVGKTIEDVRIFWPNIIRHPRDSEAFAARMIGQTVRGLERRGKFLKFLLDRDALISHLRMEGRYAVASALEPLEPHTHVVFCFTDGSELRYRDVRKFGTMHVYAKEEADRRPPLAELGPEPLSPAFSPAVLAERAVKTKRSVKALLLDCTVVAGFGNIYVDESLFRAGILPGRPAASLSSKEIERLHEEMVATIGEAVMKGGSTVRTYVNTQGEAGTFQHHLYVYGRQGNPCKRCGTPIEKTVVAGRGTHYCPRCQR” it is “soluble”.

For “SRLSRIDLAVDDFHGLFGREYAKKAYSDDAFRTARAGRAPNGGERLVSEPNGKIINESFEVGSRESRIYWRIYNKAAQLGLDMHWFRNEVELKDMPIDVLLNIEGYFAGLCAYSASIINSLPVKVVTKKRQVALDIHSRIKWARRQVGKTLFDISKHFGGDLERVFGALISKEIHDDSLNLPDSYM”, the “soluble on expression in E. coli” value was “not soluble”. The entry for “MASLPILTVLEQSQVSPPPDTLGDKSLQLTFFDFFWLRSPPINNLFFYELPITRSQFTETVVPNIKHSLSITLKHFYPFVGKLVVYPAPTKKPEICYVEGDSVAVTFAECNLDLNELTGNHPRNCDKFYDLVPILGESTRLSDCIKIPLFSVQVTLFPNQGIAIGITNHHCLGDASTRFCFLKAWTSIARSGNNDESFLANGTRPLYDRIIKYPMLDEAYLKRAKVESFNEDYVTQSLAGPSDKLRATFILTRAVINQLKDRVLAQLPTLEYVSSFTVACAYIWSCIAKSRNDKLQLFGFPIDRRARMKPPIPTAYFGNCVGGCAAIAKTNLLIGKEGFITAAKLIGENLHKTLTDYKDGVLKDDMESFNDLVSEGMPTTMTWVSGTPKLRFYDMDFGWGKPKKLETVSIDHNGAISINSCKESNEDLEIGVCISATQMEDFVHIFDDGLKAYL” is “soluble”; for “MSITAQLAALAGHGIELAKEIFAHGTSLKSKEDLAAVLGFDPTRVGRYQKTAKALFGPTDQPQLRAQAIAIAQKNNFSIDVLALINCKVGRLADAPLREEFRLELHRFAVDNSYTAIKQFANDQLEKRNGPNPARQHSLRYARFSHHPDANGMRYLITSLPDETMTAIEAKLVDKAKAHKSDTISM” it is “not soluble”; for “GSSGSSGHESETTTSLVLERSLNRVHLLGRVGQDPVLRQVEGKNPVTIFSLATNEMWRSGDSEVYQLGDVSQKTTWHRISVFRPGLRDVAYQYVKKGSRIYLEGKIDYGEYMDKNNVRRQATTIIADNIIFLSDQTKEKE” it is “soluble”. With “GMSDPRTQPLEIRPLMISRVMEVDWADGHTSRLTFEHLRVECPCAECKGHTPDQAQIVTGKEHVSVVEVVPVGHYAVQLHFSDGHNTGIFTWEYLRRLDAE” the entry was “soluble”.
